Test results from patent publication US5633227.
pKi: −log10 of the molar value.

Key:
[1] = molecular target: human mast cell tryptase purified from human lung (human) (UniProt Q15661); assay: GPK-AMC enzyme inhibition assay, Dixon plot, human lung tryptase
[2] = molecular target: human mast cell tryptase purified from human lung (human) (UniProt Q15661); assay: VIP assay (formation of Dns-VIP-(1-14)), Dixon plot, human lung tryptase
[3] = molecular target: dansylated vasoactive intestinal peptide (Dns-VIP, 28 amino acids) (Homo sapiens (Human)) (UniProt P01282)
[4] = molecular target: human mast cell tryptase purified from human lung (human) (UniProt Q15661); assay: VIP assay (loss of full-length Dns-VIP), Dixon plot, human lung tryptase

Chain of C-terminal domain of SLPI (amino acids 50-107) (P03973 75-132 limits assumed): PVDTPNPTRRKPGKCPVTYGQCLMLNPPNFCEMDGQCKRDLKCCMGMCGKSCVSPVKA
Chain of N-terminal domain of SLPI (amino acids 1-49) (P03973 26-74 limits assumed): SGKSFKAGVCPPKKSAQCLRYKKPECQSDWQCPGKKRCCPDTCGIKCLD
Chain of recombinant secretory leukocyte protease inhibitor (SLPI) (P03973 26-132): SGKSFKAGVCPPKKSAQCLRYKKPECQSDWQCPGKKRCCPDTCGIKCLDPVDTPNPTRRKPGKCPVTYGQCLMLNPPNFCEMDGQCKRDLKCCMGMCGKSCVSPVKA

C-terminal domain of SLPI (amino acids 50-107) (from UniProt P03973)
pKi [1]: 8.32 | pKi [2]: 8.80

N-terminal domain of SLPI (amino acids 1-49) (from UniProt P03973)
pKi [1]: 6.54 | pKi [2]: 6.89

human mast cell tryptase purified from human lung (from UniProt Q15661) (enzyme)
kcat/Km for the disappearance of full-length Dns-VIP (1-28), no addition [3]: 1.8e+07 M⁻¹ s⁻¹

recombinant secretory leukocyte protease inhibitor (SLPI) (from UniProt P03973)
pKi [4]: 8.10
